Laboratory results published in article PMC8322156, “Nuclear condensates of p300 formed though the structured catalytic core can act as a storage pool of p300 with reduced HAT activity” (Nature Communications, 2021).
No end group written: not given here.

Tests used:
[1] = test system: p300 BRPHZ, SIRT2-deacetylated (~4 Kac, outside the AIL) (human); assay: EMSA; conditions: EMSA: 20 mM Tris-HCl pH 7.5, 50 mM NaCl (75 mM for NCP), 2 mM DTT, 5 min; 5% PAGE in 0.2x TBE (DNA) or 0.2x TB (NCP), 100 V, on ice; SYBR Gold
[2] = target: T1, SIRT2-treated p300_(BRPHZ) (catalytic core BD-RING-PHD-HAT-ZZ, aa 1035-1720 of p300), hypoacetylated (human, UniProt Q09472 1035-1720, on average 4 acetyl-lysines outside the AIL left after SIRT2 treatment (sites not given)); assay: recruitment of a labelled peptide into condensates (confocal microscopy); 13 uM SIRT2-treated p300 condensates (PEG-induced) mixed with 6 uM FAM-labeled H3 tail (aa 1-12); FAM alone as control; conditions: both partners purified
T1 construct: human p300, BD-RING-PHD-HAT-ZZ region (BRPHZ), amino acids 1035-1720; Heterogeneously acetylated; Vector pGEX-6P-1; also called SIRT2-deacetylated p300BRPHZ; deacetylated p300
T1 sequence (looked up): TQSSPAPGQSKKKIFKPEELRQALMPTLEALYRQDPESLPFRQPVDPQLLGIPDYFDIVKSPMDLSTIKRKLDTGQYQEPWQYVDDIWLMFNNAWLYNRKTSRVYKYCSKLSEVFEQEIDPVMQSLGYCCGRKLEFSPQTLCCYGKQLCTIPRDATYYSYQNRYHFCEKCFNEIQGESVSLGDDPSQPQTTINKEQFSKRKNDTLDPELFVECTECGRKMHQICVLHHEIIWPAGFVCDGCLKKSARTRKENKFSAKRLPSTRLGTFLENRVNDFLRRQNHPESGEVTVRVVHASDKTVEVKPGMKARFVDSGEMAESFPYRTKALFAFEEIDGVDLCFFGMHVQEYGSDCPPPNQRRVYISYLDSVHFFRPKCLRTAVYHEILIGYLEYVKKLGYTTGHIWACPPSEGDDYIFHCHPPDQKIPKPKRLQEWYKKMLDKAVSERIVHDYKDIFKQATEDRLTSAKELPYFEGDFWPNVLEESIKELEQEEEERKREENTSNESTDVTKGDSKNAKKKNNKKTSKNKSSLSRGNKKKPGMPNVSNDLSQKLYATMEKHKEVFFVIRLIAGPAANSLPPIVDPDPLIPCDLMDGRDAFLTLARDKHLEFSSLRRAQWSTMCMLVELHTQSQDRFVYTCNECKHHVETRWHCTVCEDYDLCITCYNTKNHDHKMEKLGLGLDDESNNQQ

| Molecule | Kd [1] [nM] | binding result [2] |
| --- | --- | --- |
| 601 DNA 147 bp | 300 |  |
| ARTKQTARKSTG (peptide, UniProt P68431 2-13, looked up, also: fluorescein (FAM) label, position not given here, histone H3 tail, residues 1-12, unmodified; also called FAM-H3; FAM-labeled H3_(1-12) peptide) [fluorescein (FAM)-labeled histone H3 tail peptide (residues 1-12 of H3)] |  | binds |
